{
  "source": "paper PMC4322367",
  "key": {"[1]": {"target": "Plk1 (UniProt P53350)", "test": "GST pull-down of His-Plk1", "conditions": "reference: wild type; sites S12"}, "[2]": {"target": "Plk1 (UniProt P53350)", "test": "co-IP of FLAG-Ataxin-10 and HA-Plk1", "conditions": "reference: wild type; sites S12"}},
  "data": [
    {"substance": "Ataxin-10 (from UniProt Q9UBB4) S12A", "values": [
      {"measurement": "other: percent decrease vs wild type", "setting": "[1]", "value": 20, "unit": "%"},
      {"measurement": "other: percent decrease vs wild type", "setting": "[2]", "value": 30, "unit": "%"}
    ]}
  ]
}
